Laboratory results reported in patent US20250388640A1 (SYNTHEKINE, published 2025).

What was measured:
Test in all cases: cell-based or functional assay
[1] = biological target: T1, hIL-12 receptor signaling complex (hIL-12Rβ1 and hIL-12Rβ2) (human, UniProt P42701 24-662; Q99665 24-862)
[2] = biological target: T1, hIL-12 receptor signaling complex …; remark: listed apart in the source
[3] = biological target: T1, hIL-12 receptor signaling complex …; remark: listed apart in the source
[4] = biological target: T1, hIL-12 receptor signaling complex …; remark: listed apart in the source

T1 sequence (Q99665 24-862, chain 2 of 2, other chains not shown): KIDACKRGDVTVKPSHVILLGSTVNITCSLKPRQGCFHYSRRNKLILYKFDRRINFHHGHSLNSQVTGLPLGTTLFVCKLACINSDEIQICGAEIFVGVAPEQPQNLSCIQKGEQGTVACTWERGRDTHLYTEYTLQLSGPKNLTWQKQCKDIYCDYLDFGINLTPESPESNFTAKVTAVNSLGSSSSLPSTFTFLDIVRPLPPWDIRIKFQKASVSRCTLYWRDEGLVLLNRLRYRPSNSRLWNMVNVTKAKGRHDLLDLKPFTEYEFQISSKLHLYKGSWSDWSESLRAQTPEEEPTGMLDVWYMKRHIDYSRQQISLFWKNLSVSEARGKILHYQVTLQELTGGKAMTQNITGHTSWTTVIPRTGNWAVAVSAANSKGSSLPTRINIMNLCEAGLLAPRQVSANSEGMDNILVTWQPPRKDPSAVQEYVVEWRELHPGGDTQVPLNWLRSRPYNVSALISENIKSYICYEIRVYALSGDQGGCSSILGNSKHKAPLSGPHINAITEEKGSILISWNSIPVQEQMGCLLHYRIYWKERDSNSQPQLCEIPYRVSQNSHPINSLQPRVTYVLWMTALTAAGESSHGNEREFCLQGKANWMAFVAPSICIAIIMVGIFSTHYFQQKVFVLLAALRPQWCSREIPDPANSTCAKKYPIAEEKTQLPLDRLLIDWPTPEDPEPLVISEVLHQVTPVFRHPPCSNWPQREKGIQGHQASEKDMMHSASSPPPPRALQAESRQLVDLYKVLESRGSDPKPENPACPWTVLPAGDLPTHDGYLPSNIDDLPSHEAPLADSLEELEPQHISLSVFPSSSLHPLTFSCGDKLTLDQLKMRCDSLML

B1: human IL12 mutein, hIL-12p40 E81S, F82A with hIL-12p35-8X His (ligand)
chain 1: IWELKKDVYVVELDWYPDAPGEMVVLTCDTPEEDGITWTLDQSSEVLGSGKTLTIQVKSAGDAGQYTCHKGGEVLSHSLLLLHKKEDGIWSTDILKDQKEPKNKTFLRCEAKNYSGRFTCWWLTTISTDLTFSVKSSRGSSDPQGVTCGAATLSAERVRGDNKEYEYSVECQEDSACPAAEESLPIEVMVDAVHKLKYENYTSSFFIRDIIKPDPPKNLQLKPLKNSRQVEVSWEYPDTWSTPHSYFSLTFCVQVQGKSKREKKDRVFTDKTSATVICRKNASISVRAQDRYYSSSWSEWASVPCS
chain 2: RNLPVATPDPGMFPCLHHSQNLLRAVSNMLQKARQTLEFYPCTSEEIDHEDITKDKTSTVEACLPLELTKNESCLNSRETSFITNGSCLASRKTSFMMALCLSSIYEDLKMYQVEFKTMNAKLLMDPKRQIFLDQNMLAVIDELMQALNFNSETVPQKSSLEEPDFYKTKIKLCILLHAFRIRAVTIDRVMSYLNASGSHHHHHHHH
IFNy [gMFI] EC50, CD8+ T Cells [1]: 0.21 nM | IFNy [gMFI] EC50, CD56hi NK Cells [1]: 0.73 nM | IFNy [gMFI] Emax, CD8+ T Cells [1]: 11300 gMFI | IFNy [gMFI] Emax, CD56hi NK Cells [1]: 206000 gMFI | IFNy [%+] EC50, CD8+ T Cells [2]: 0.101 nM | IFNy [%+] EC50, CD56hi NK Cells [2]: 0.014 nM | IFNy [%+] Emax, CD8+ T Cells [2]: 69 %+ | IFNy [%+] Emax, CD56hi NK Cells [2]: 94.9 %+

B2: human IL12 mutein, hIL-12p40 E81A, F82I with hIL-12p35-8X His (ligand)
chain 1: IWELKKDVYVVELDWYPDAPGEMVVLTCDTPEEDGITWTLDQSSEVLGSGKTLTIQVKAIGDAGQYTCHKGGEVLSHSLLLLHKKEDGIWSTDILKDQKEPKNKTFLRCEAKNYSGRFTCWWLTTISTDLTFSVKSSRGSSDPQGVTCGAATLSAERVRGDNKEYEYSVECQEDSACPAAEESLPIEVMVDAVHKLKYENYTSSFFIRDIIKPDPPKNLQLKPLKNSRQVEVSWEYPDTWSTPHSYFSLTFCVQVQGKSKREKKDRVFTDKTSATVICRKNASISVRAQDRYYSSSWSEWASVPCS
chain 2: RNLPVATPDPGMFPCLHHSQNLLRAVSNMLQKARQTLEFYPCTSEEIDHEDITKDKTSTVEACLPLELTKNESCLNSRETSFITNGSCLASRKTSFMMALCLSSIYEDLKMYQVEFKTMNAKLLMDPKRQIFLDQNMLAVIDELMQALNFNSETVPQKSSLEEPDFYKTKIKLCILLHAFRIRAVTIDRVMSYLNASGSHHHHHHHH
pSTAT4 [gMFI] EC50, CD8+ T Cells [3]: 5.72 nM | pSTAT4 [gMFI] EC50, CD56hi NK Cells [3]: 10.4 nM | pSTAT4 [gMFI] Emax, CD8+ T Cells [3]: 106000 gMFI | pSTAT4 [gMFI] Emax, CD56hi NK Cells [3]: 30500 gMFI | pSTAT4 [%+] EC50, CD8+ T Cells [4]: 0.67 nM | pSTAT4 [%+] EC50, CD56hi NK Cells [4]: 0.9 nM | pSTAT4 [%+] Emax, CD8+ T Cells [4]: 79.2 %+ | pSTAT4 [%+] Emax, CD56hi NK Cells [4]: 86 %+

B3: human IL12 mutein, hIL-12p40 E81A, F82L with hIL-12p35-8X His (ligand)
chain 1: IWELKKDVYVVELDWYPDAPGEMVVLTCDTPEEDGITWTLDQSSEVLGSGKTLTIQVKALGDAGQYTCHKGGEVLSHSLLLLHKKEDGIWSTDILKDQKEPKNKTFLRCEAKNYSGRFTCWWLTTISTDLTFSVKSSRGSSDPQGVTCGAATLSAERVRGDNKEYEYSVECQEDSACPAAEESLPIEVMVDAVHKLKYENYTSSFFIRDIIKPDPPKNLQLKPLKNSRQVEVSWEYPDTWSTPHSYFSLTFCVQVQGKSKREKKDRVFTDKTSATVICRKNASISVRAQDRYYSSSWSEWASVPCS
chain 2: RNLPVATPDPGMFPCLHHSQNLLRAVSNMLQKARQTLEFYPCTSEEIDHEDITKDKTSTVEACLPLELTKNESCLNSRETSFITNGSCLASRKTSFMMALCLSSIYEDLKMYQVEFKTMNAKLLMDPKRQIFLDQNMLAVIDELMQALNFNSETVPQKSSLEEPDFYKTKIKLCILLHAFRIRAVTIDRVMSYLNASGSHHHHHHHH
pSTAT4 [gMFI] EC50, CD8+ T Cells [3]: 3.12 nM | pSTAT4 [gMFI] EC50, CD56hi NK Cells [3]: 7.21 nM | pSTAT4 [gMFI] Emax, CD8+ T Cells [3]: 100000 gMFI | pSTAT4 [gMFI] Emax, CD56hi NK Cells [3]: 31100 gMFI | pSTAT4 [%+] EC50, CD8+ T Cells [4]: 0.71 nM | pSTAT4 [%+] EC50, CD56hi NK Cells [4]: 1.08 nM | pSTAT4 [%+] Emax, CD8+ T Cells [4]: 80.2 %+ | pSTAT4 [%+] Emax, CD56hi NK Cells [4]: 89.1 %+

B4: human IL12 wild type (hIL-12p40 wild type with hIL-12p35-8X His) (ligand)
chain 1: IWELKKDVYVVELDWYPDAPGEMVVLTCDTPEEDGITWTLDQSSEVLGSGKTLTIQVKEFGDAGQYTCHKGGEVLSHSLLLLHKKEDGIWSTDILKDQKEPKNKTFLRCEAKNYSGRFTCWWLTTISTDLTFSVKSSRGSSDPQGVTCGAATLSAERVRGDNKEYEYSVECQEDSACPAAEESLPIEVMVDAVHKLKYENYTSSFFIRDIIKPDPPKNLQLKPLKNSRQVEVSWEYPDTWSTPHSYFSLTFCVQVQGKSKREKKDRVFTDKTSATVICRKNASISVRAQDRYYSSSWSEWASVPCS
chain 2: RNLPVATPDPGMFPCLHHSQNLLRAVSNMLQKARQTLEFYPCTSEEIDHEDITKDKTSTVEACLPLELTKNESCLNSRETSFITNGSCLASRKTSFMMALCLSSIYEDLKMYQVEFKTMNAKLLMDPKRQIFLDQNMLAVIDELMQALNFNSETVPQKSSLEEPDFYKTKIKLCILLHAFRIRAVTIDRVMSYLNASGSHHHHHHHH
pSTAT4 [gMFI] EC50, CD8+ T Cells [3]: 30 pM | pSTAT4 [gMFI] EC50, CD56hi NK Cells [3]: 60 pM | pSTAT4 [gMFI] Emax, CD8+ T Cells [3]: 121000 gMFI | pSTAT4 [gMFI] Emax, CD56hi NK Cells [3]: 37700 gMFI | pSTAT4 [%+] EC50, CD8+ T Cells [4]: 10 pM | pSTAT4 [%+] EC50, CD56hi NK Cells [4]: 10 pM | pSTAT4 [%+] Emax, CD8+ T Cells [4]: 85 %+ | pSTAT4 [%+] Emax, CD56hi NK Cells [4]: 91.4 %+

B5: human IL12 mutein, hIL-12p40 E81A, F82P with hIL-12p35-8X His (ligand)
chain 1: IWELKKDVYVVELDWYPDAPGEMVVLTCDTPEEDGITWTLDQSSEVLGSGKTLTIQVKAPGDAGQYTCHKGGEVLSHSLLLLHKKEDGIWSTDILKDQKEPKNKTFLRCEAKNYSGRFTCWWLTTISTDLTFSVKSSRGSSDPQGVTCGAATLSAERVRGDNKEYEYSVECQEDSACPAAEESLPIEVMVDAVHKLKYENYTSSFFIRDIIKPDPPKNLQLKPLKNSRQVEVSWEYPDTWSTPHSYFSLTFCVQVQGKSKREKKDRVFTDKTSATVICRKNASISVRAQDRYYSSSWSEWASVPCS
chain 2: RNLPVATPDPGMFPCLHHSQNLLRAVSNMLQKARQTLEFYPCTSEEIDHEDITKDKTSTVEACLPLELTKNESCLNSRETSFITNGSCLASRKTSFMMALCLSSIYEDLKMYQVEFKTMNAKLLMDPKRQIFLDQNMLAVIDELMQALNFNSETVPQKSSLEEPDFYKTKIKLCILLHAFRIRAVTIDRVMSYLNASGSHHHHHHHH
pSTAT4 [gMFI] EC50, CD8+ T Cells [3]: 2.87 nM | pSTAT4 [gMFI] EC50, CD56hi NK Cells [3]: 8.04 nM | pSTAT4 [gMFI] Emax, CD8+ T Cells [3]: 94000 gMFI | pSTAT4 [gMFI] Emax, CD56hi NK Cells [3]: 29600 gMFI | pSTAT4 [%+] EC50, CD8+ T Cells [4]: 0.71 nM | pSTAT4 [%+] EC50, CD56hi NK Cells [4]: 1.15 nM | pSTAT4 [%+] Emax, CD8+ T Cells [4]: 79.7 %+ | pSTAT4 [%+] Emax, CD56hi NK Cells [4]: 87.6 %+

B6: human IL12 mutein, hIL-12p40 E81A, F82C with hIL-12p35-8X His (ligand)
chain 1: IWELKKDVYVVELDWYPDAPGEMVVLTCDTPEEDGITWTLDQSSEVLGSGKTLTIQVKACGDAGQYTCHKGGEVLSHSLLLLHKKEDGIWSTDILKDQKEPKNKTFLRCEAKNYSGRFTCWWLTTISTDLTFSVKSSRGSSDPQGVTCGAATLSAERVRGDNKEYEYSVECQEDSACPAAEESLPIEVMVDAVHKLKYENYTSSFFIRDIIKPDPPKNLQLKPLKNSRQVEVSWEYPDTWSTPHSYFSLTFCVQVQGKSKREKKDRVFTDKTSATVICRKNASISVRAQDRYYSSSWSEWASVPCS
chain 2: RNLPVATPDPGMFPCLHHSQNLLRAVSNMLQKARQTLEFYPCTSEEIDHEDITKDKTSTVEACLPLELTKNESCLNSRETSFITNGSCLASRKTSFMMALCLSSIYEDLKMYQVEFKTMNAKLLMDPKRQIFLDQNMLAVIDELMQALNFNSETVPQKSSLEEPDFYKTKIKLCILLHAFRIRAVTIDRVMSYLNASGSHHHHHHHH
pSTAT4 [gMFI] EC50, CD8+ T Cells [3]: 12.7 nM | pSTAT4 [gMFI] EC50, CD56hi NK Cells [3]: 30 nM | pSTAT4 [gMFI] Emax, CD8+ T Cells [3]: 87500 gMFI | pSTAT4 [gMFI] Emax, CD56hi NK Cells [3]: 27000 gMFI | pSTAT4 [%+] EC50, CD8+ T Cells [4]: 3.4 nM | pSTAT4 [%+] EC50, CD56hi NK Cells [4]: 5.08 nM | pSTAT4 [%+] Emax, CD8+ T Cells [4]: 79 %+ | pSTAT4 [%+] Emax, CD56hi NK Cells [4]: 85.2 %+

B7: human IL12 mutein, hIL-12p40 E81A, F82H with hIL-12p35-8X His (ligand)
chain 1: IWELKKDVYVVELDWYPDAPGEMVVLTCDTPEEDGITWTLDQSSEVLGSGKTLTIQVKAHGDAGQYTCHKGGEVLSHSLLLLHKKEDGIWSTDILKDQKEPKNKTFLRCEAKNYSGRFTCWWLTTISTDLTFSVKSSRGSSDPQGVTCGAATLSAERVRGDNKEYEYSVECQEDSACPAAEESLPIEVMVDAVHKLKYENYTSSFFIRDIIKPDPPKNLQLKPLKNSRQVEVSWEYPDTWSTPHSYFSLTFCVQVQGKSKREKKDRVFTDKTSATVICRKNASISVRAQDRYYSSSWSEWASVPCS
chain 2: RNLPVATPDPGMFPCLHHSQNLLRAVSNMLQKARQTLEFYPCTSEEIDHEDITKDKTSTVEACLPLELTKNESCLNSRETSFITNGSCLASRKTSFMMALCLSSIYEDLKMYQVEFKTMNAKLLMDPKRQIFLDQNMLAVIDELMQALNFNSETVPQKSSLEEPDFYKTKIKLCILLHAFRIRAVTIDRVMSYLNASGSHHHHHHHH
pSTAT4 [gMFI] EC50, CD8+ T Cells [3]: 4.04 nM | pSTAT4 [gMFI] EC50, CD56hi NK Cells [3]: 8.57 nM | pSTAT4 [gMFI] Emax, CD8+ T Cells [3]: 108000 gMFI | pSTAT4 [gMFI] Emax, CD56hi NK Cells [3]: 33500 gMFI | pSTAT4 [%+] EC50, CD8+ T Cells [4]: 0.55 nM | pSTAT4 [%+] EC50, CD56hi NK Cells [4]: 0.97 nM | pSTAT4 [%+] Emax, CD8+ T Cells [4]: 79.6 %+ | pSTAT4 [%+] Emax, CD56hi NK Cells [4]: 89.7 %+
